Source: patent US20150337292A1

Tests used:
[1] = target: hsEGFR (human (printed only as 'hs')) (UniProt P00533); assay: two-colour flow cytometry after 24 hours, b-hsEGFR/SA-PE and Fc-specific AlexaFluor 647
[2] = target: hsEGFR (human (printed only as 'hs')) (UniProt P00533); assay: two-colour flow cytometry after 48 hours, b-hsEGFR/SA-PE and Fc-specific AlexaFluor 647

In the case of “antibody matuzumab (IgG molecule) secreted by yeast and displayed through the ZZ domain”, the percent of cells within the marker region M1 [1] is reported as 36.4% and the percent of cells within the marker region M1 [2] is reported as 43.4%.
